Results reported in patent US20120178701A1 (PALATIN TECHNOLOGIES, published 2012).
Numbered stars: 1 amine (or outer) side, 2 acyl side, 3 side chain; on linkers, the order of the positions; unused ones are H or OH. Bridge positions count the residues as written; N and C are the ends. Square brackets hold non-standard residues; d marks the D form. * marks the point of attachment. Hyp(Bzl) = O-benzyl-hydroxyproline, O=C([C@@H]1C[C@@H](OCc2ccccc2)CN1[*:1])[*:2]; Thr(Bzl) = O-benzyl-threonine, C[C@@H](OCc1ccccc1)[C@H](N[*:1])C(=O)[*:2]; Pro(trans-4-NH2) = O=C([C@@H]1C[C@@H](N[*:3])CN1[*:1])[*:2]; Phe(3-CONH2) = NC(=O)c1cccc(C[C@H](N)C(=O)O)c1; Phe(4-CONH2) = NC(=O)c1ccc(C[C@H](N)C(=O)O)cc1; Met(O2) = CS(=O)(=O)CC[C@H](N)C(=O)O; Hyp = O=C(O)[C@@H]1C[C@@H](O)CN1; Met(O) = CS(=O)CC[C@H](N)C(=O)O; Cit = NC(=O)NCCC[C@H](N)C(=O)O; Orn = NCCC[C@H](N)C(=O)O; Dab = NCC[C@H](N)C(=O)O; Pentanoyl = CCCCC(=O)*

B1: Ac-Arg-cyclo(Lys-Dab-D-Phe-Arg-Trp-Asp)-OH (peptide)
peptide: RKXFRWD
HELM: PEPTIDE1{[ac].R.K.[Dab].[dF].R.W.D}$PEPTIDE1,PEPTIDE1,3:R3-8:R3$$$V2.0
SMILES: CC(=O)N[C@@H](CCCNC(=N)N)C(=O)N[C@H]1CCCCNC(=O)C[C@@H](C(=O)O)NC(=O)[C@H](Cc2c[nH]c3ccccc23)NC(=O)[C@H](CCCNC(=N)N)NC(=O)[C@@H](Cc2ccccc2)NC(=O)[C@H](CCN)NC1=O
notes: also called peptide No. 131
B2: Ac-Arg-cyclo(hGlu-Gln-D-Phe-Arg-Trp-Dab)-NH2 (peptide)
peptide: RXQFRWX
modifications: N-acetyl; X2 = hGlu; D-Phe 4; X7 = Dab; side-chain lactam hGlu2-Dab7; C-terminal amide
notes: also called peptide No. 147
B3: Ac-Arg-cyclo(hGlu-Met(O2)-D-Phe-Arg-Trp-Dab)-NH2 (peptide)
peptide: RXMFRWX
HELM: PEPTIDE1{[ac].R.[O=C([C@H](CCCC(=O)[*:3])N[*:1])[*:2]].[CS(=O)(=O)CC[C@H](N[*:1])C(=O)[*:2]].[dF].R.W.[Dab].[am]}$PEPTIDE1,PEPTIDE1,3:R3-8:R3$$$V2.0
SMILES: CC(=O)N[C@@H](CCCNC(=N)N)C(=O)N[C@H]1CCCC(=O)NCC[C@@H](C(N)=O)NC(=O)[C@H](Cc2c[nH]c3ccccc23)NC(=O)[C@H](CCCNC(=N)N)NC(=O)[C@@H](Cc2ccccc2)NC(=O)[C@H](CCS(C)(=O)=O)NC1=O
B4: Ac-Gln-cyclo(Asp-Dab-D-Phe-Arg-Trp-Lys)-NH2 (peptide)
peptide: QDXFRWK
HELM: PEPTIDE1{[ac].Q.D.[Dab].[dF].R.W.K.[am]}$PEPTIDE1,PEPTIDE1,3:R3-8:R3$$$V2.0
SMILES: CC(=O)N[C@@H](CCC(N)=O)C(=O)N[C@H]1CC(=O)NCCCC[C@@H](C(N)=O)NC(=O)[C@H](Cc2c[nH]c3ccccc23)NC(=O)[C@H](CCCNC(=N)N)NC(=O)[C@@H](Cc2ccccc2)NC(=O)[C@H](CCN)NC1=O
notes: also called peptide No. 142
B5: Ac-Orn-cyclo(Orn-Asn-D-Phe-Arg-Trp-Glu)-NH2 (peptide)
peptide: XXNFRWE
HELM: PEPTIDE1{[ac].[Orn].[Orn].N.[dF].R.W.E.[am]}$PEPTIDE1,PEPTIDE1,3:R3-8:R3$$$V2.0
SMILES: CC(=O)N[C@@H](CCCN)C(=O)N[C@H]1CCCNC(=O)CC[C@@H](C(N)=O)NC(=O)[C@H](Cc2c[nH]c3ccccc23)NC(=O)[C@H](CCCNC(=N)N)NC(=O)[C@@H](Cc2ccccc2)NC(=O)[C@H](CC(N)=O)NC1=O
notes: also called peptide No. 158
B6: Ac-Arg-cyclo(Asp-His-D-Nal 1-Arg-Trp-Lys)-NH2 (peptide)
peptide: RDHXRWK
modifications: N-acetyl; X4 = D-Nal 1 (D-3-(1-naphthyl)alanine); side-chain lactam Asp2-Lys7; C-terminal amide
notes: also called peptide No. 19
B7: Ac-Arg-cyclo(Lys-Dab-D-Phe-Arg-Trp-Asp)-NH2 (peptide)
peptide: RKXFRWD
HELM: PEPTIDE1{[ac].R.K.[Dab].[dF].R.W.D.[am]}$PEPTIDE1,PEPTIDE1,3:R3-8:R3$$$V2.0
SMILES: CC(=O)N[C@@H](CCCNC(=N)N)C(=O)N[C@H]1CCCCNC(=O)C[C@@H](C(N)=O)NC(=O)[C@H](Cc2c[nH]c3ccccc23)NC(=O)[C@H](CCCNC(=N)N)NC(=O)[C@@H](Cc2ccccc2)NC(=O)[C@H](CCN)NC1=O
notes: also called peptide No. 121

Target: T1, human recombinant melanocortin-4 receptor (human, UniProt P32245 1-332)
T1 construct: whole, on cells; cAMP assays used the whole cells; also called hMC4-R; MC4-R
T1 sequence (P32245 whole entry): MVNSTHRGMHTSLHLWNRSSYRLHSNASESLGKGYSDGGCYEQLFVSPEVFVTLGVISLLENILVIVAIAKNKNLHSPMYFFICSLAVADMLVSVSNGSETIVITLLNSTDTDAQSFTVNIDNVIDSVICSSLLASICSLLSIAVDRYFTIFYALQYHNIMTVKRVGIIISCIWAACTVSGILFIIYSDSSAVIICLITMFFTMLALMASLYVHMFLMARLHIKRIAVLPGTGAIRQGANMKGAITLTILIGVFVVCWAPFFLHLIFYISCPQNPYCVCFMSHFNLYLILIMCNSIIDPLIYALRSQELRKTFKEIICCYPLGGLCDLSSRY
Test: competitive inhibition of [I125]-NDP-α-MSH, hMC4-R HEK-293 membranes
Protocol: A competitive inhibition binding assay is performed using membrane homogenates prepared from HEK-293 cells that express recombinant hMC4-R, hMC3-R, or hMC5-R, and from B-16 mouse melanoma cells (containing endogenous MC1-R). In some instances, HEK-293 cells that express recombinant hMC1-R were employed. In the examples that follow, all MC3-R, MC4-R and MC5-R values are for human recombinant receptors. […] Membrane homogenates were incubated with 0.2 nM (for hMC4-R) 0.4 nM (for MC3-R and MC5-R) or 0.1 nM (for mouse B16 MC1-R or hMC1-R) [I¹²⁵]-NDP-α-MSH (Perkin Elmer) and increasing concentrations of test peptides of the present invention in buffer containing 25 mM HEPES buffer (pH 7.5) with 100 mM NaCl, 2 mM CaCl₂, 2 mM MgCl₂, 0.3 mM 1,10-phenanthroline, and 0.2% bovine serum albumin. After incubation for 60 minutes at 37° C., the assay mixture was filtered and the membranes washed three times with ice-cold buffer. Filters were dried and counted in a gamma counter for bound radioactivity. […] Maximal specific binding (100%) was defined as the difference in radioactivity (cpm) bound to cell membranes in the absence and presence of 1 μM NDP-α-MSH. […] Each assay was conducted in triplicate and the actual mean values are described, with results less than 0% reported as 0%. Ki values for test peptides of the present invention were determined using Graph-Pad Prism® curve-fitting software.
9.1 Peptides of the following structures were synthesized by the general methods described above, and averaged MC4-R Ki values for peptides were determined as indicated. […] Ki values marked “ND” were not determined.

Binder	Ki [nM]
Ac-R[Orn]H[dF]RWE-NH2 (lactam 2-7, also called peptide No. 75) [Ac-Arg-cyclo(Orn-His-D-Phe-Arg-Trp-Glu)-NH2]	0.6
B1	35
B2	20
B3	4
Ac-RD[Pro(trans-4-NH2)][dF]RWK-NH2 (lactam 2-7, also called peptide No. 80) [Ac-Arg-cyclo(Asp-Pro(4R-NH2)-D-Phe-Arg-Trp-Lys)-NH2]	5
Ac-RE[Pro(trans-4-NH2)][dF]RW[Orn]-NH2 (lactam 2-7, also called peptide No. 112) [Ac-Arg-Cyclo(Glu-Pro(4R-NH2)-D-Phe-Arg-Trp-Orn)-NH2]	6
Ac-RE[Met(O2)][dF]RW[Orn]-NH2 (lactam 2-7, also called peptide No. 100) [Ac-Arg-cyclo(Glu-Met(O2)-D-Phe-Arg-Trp-Orn)-NH2]	8
Ac-REK[dF]RW[Orn]-NH2 (lactam 2-7) [Ac-Arg-cyclo(Glu-Lys-D-Phe-Arg-Trp-Orn)-NH2]	15
Ac-REN[dF]RW[Orn]-OH (lactam 2-7, also called peptide No. 91) [Ac-Arg-cyclo(Glu-Asn-D-Phe-Arg-Trp-Orn)-OH]	167
Ac-RE[Met(O)][dF]RW[Orn]-NH2 (lactam 2-7, also called peptide No. 111) [Ac-Arg-cyclo(Glu-Met(═O)-D-Phe-Arg-Trp-Orn)-NH2]	9
Ac-RD[Pro(Bn)][dF]RWK-OH (lactam 2-7, also called peptide No. 55) [Ac-Arg-cyclo(Asp-Pro(Bn)-D-Phe-Arg-Trp-Lys)-OH]	12
B4	15
B5	50
Pentanoyl-EH[dF]R[Dab]W-NH2 (lactam 1-5, also called peptide No. 153) [n-C4H9-CO-cyclo(Glu-His-D-Phe-Arg-Dab)-Trp-NH2]	365
Ac-RD[Hyp][dF]RWK-NH2 (lactam 2-7, also called peptide No. 79) [Ac-Arg-cyclo(Asp-Hyp-D-Phe-Arg-Trp-Lys)-NH2]	4
Ac-RD[Hyp(Bzl)][dF]RWK-OH (lactam 2-7, also called peptide No. 54) [Ac-Arg-cyclo(Asp-Hyp(Bzl)-D-Phe-Arg-Trp-Lys)-OH]	3

Binder	Ki [nM]
Ac-REH[dF]RW[Orn]-OH (lactam 2-7, also called peptide No. 82) [Ac-Arg-cyclo(Glu-His-D-Phe-Arg-Trp-Orn)-OH]	4
Ac-RDK[dF][Cit]WK-NH2 (lactam 2-7, also called peptide No. 116) [Ac-Arg-cyclo(Asp-Lys-D-Phe-Cit-Trp-Lys)-NH2]	873
Ac-RE[Orn](Ac)[dF]RW[Orn]-NH2 (lactam 2-7, also called peptide No. 149) [Ac-Arg-cyclo(Glu-Orn(Acetyl)-D-Phe-Arg-Trp-Orn)-NH2]	7
Ac-RDN[dF]RWK-OH (lactam 2-7, also called peptide No. 56) [Ac-Arg-cyclo(Asp-Asn-D-Phe-Arg-Trp-Lys)-OH]	100
Ac-RDS[dF]RWK-NH2 (lactam 2-7, also called peptide No. 3) [Ac-Arg-cyclo(Asp-Ser-D-Phe-Arg-Trp-Lys)-NH2]	172
Ac-RD[Phe(3-CONH2)][dF]RWK-NH2 (lactam 2-7, also called peptide No. 49) [Ac-Arg-cyclo(Asp-Phe-(3-(C(═O)-NH2))-D-Phe-Arg-Trp-Lys)-NH2]	15
Ac-RDK[dF]RWK-NH2 (lactam 2-7, also called peptide No. 2) [Ac-Arg-cyclo(Asp-Lys-D-Phe-Arg-Trp-Lys)-NH2]	30
Ac-RD[Phe(4-CONH2)][dF]RWK-NH2 (lactam 2-7, also called peptide No. 50) [Ac-Arg-cyclo(Asp-Phe(4-(C(═O)-NH2))-D-Phe-Arg-Trp-Lys)-NH2]	30
Ac-RD[Met(O2)][dF]RWK-NH2 (lactam 2-7, also called peptide No. 77) [Ac-Arg-cyclo(Asp-Met-(O2)-D-Phe-Arg-Trp-Lys)-NH2]	7
Ac-RD[Thr(Bzl)][dF]RWK-NH2 (lactam 2-7, also called peptide No. 14) [Ac-Arg-cyclo(Asp-Thr(Bzl)-D-Phe-Arg-Trp-Lys)-NH2]	1
Ac-RDQ[dF]RWK-OH (lactam 2-7, also called peptide No. 57) [Ac-Arg-cyclo(Asp-Gln-D-Phe-Arg-Trp-Lys)-OH]	115
B6	3
B7	0.4
Ac-RE[Orn][dF]RW[Orn]-OH (lactam 2-7, also called peptide No. 90) [Ac-Arg-cyclo(Glu-Orn-D-Phe-Arg-Trp-Orn)-OH]	9
H-R[Orn]H[dF]RWE-NH2 (lactam 2-7, also called peptide No. 99) [Arg-cyclo(Orn-His-D-Phe-Arg-Trp-Glu)-NH2]	6
Ac-RKQ[dF]RWD-NH2 (lactam 2-7, also called peptide No. 151) [Ac-Arg-cyclo(Lys-Gln-D-Phe-Arg-Trp-Asp)-NH2]	4
